The supplement of paper PMC9170038

Test system: K4 kissing-loop RNA reporter
Experiment: apparent KD of K4 kissing-loop reporter; higher = weaker reporter binding
Conditions: Eterna round: R107
Procedure: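 RNA-MaP round R107: designed RNA switches with theophylline, tryptophan, arginine or FMN aptamers are transcribed on-chip within common flanks. They are titrated with a labelled K4 kissing-loop RNA reporter in RNA-MaP buffer (100 mM Tris pH 7.5, 80 mM KCl, 4 mM MgCl2), without ligand or with the indicated ligand. Median apparent KD per design.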

[1] = input ligand: theophylline 20 uM
[2] = input ligand: tryptophan 2.4 mM
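Note: bound reporter read as fluorescence of individual clusters on recovered sequencing chips by microscopy, with normalized cluster intensities fitted with a binding model.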

| Sequence | apparent KD of K4 kissing-loop reporter (input ligand: FMN 200 uM) | apparent KD of K4 kissing-loop reporter (input ligand: arginine 13.2 mM) | apparent KD of K4 kissing-loop reporter (input ligand: none) | apparent KD of K4 kissing-loop reporter [1] | apparent KD of K4 kissing-loop reporter [2] |
| --- | --- | --- | --- | --- | --- |
| GUCUUACUAUAGGAUACCAGCAUGCAAGGAGUGAUGUUCCCGUCAUAUGAGGAGUACCGCUGCCCUUGGCAGCCUCUUGUAAGUU [theeternabot_sameState_KL_Theo_B_1] | 502 nM | 253 nM | 353 nM | 411 nM | 316 nM |
| UGUCAUUGGUCUGAUACCAGUUAGACCGAUAGGUCAAAACUGGAGUGAUGUUCCUAAAAUAACCCUUGGCAGCAGACCGAUGACU [TheoBS 2 #SwitchBubble #StaticStem] | 1380 nM | 601 nM | 1010 nM | 856 nM | 954 nM |
| GGGAGCAAAGCUCCCGGAUGCUAUUACCAGUAGGAUAUCUGGAAACAGAGAAGGGCUAAGCCAGUGAUGUUGGUUUCGAGCAUCC | 596 nM | 575 nM | 754 nM | 575 nM | 514 nM |
| CGCCAGUGAUGUUGGUGCAGCUACCGGGAAGGAGCGCCCAUAAGGGCAGGUAGGUCGCCCGGGCAGUGAUGUUGCCUCAUGCCGC [Exclusion Arginine A GF 22] | 243 nM | 236 nM | 273 nM | 234 nM | 238 nM |
| UGACUGGAUGGAAGGAGCGCUAAACUCCUAGUGAUGUUAGGGACAUGAGGCAUAGCCUUGAAGCAGGUAGGUCGCCAUCUAGUCU [FiskerMod 29 - Jieux - Same State - Arginine B] | 193 nM | 132 nM | 184 nM | 189 nM | 144 nM |
| UGUGAGCUGUCGACAAAAGUCGACUAAAACUAGGAUAUGACGAAAGUCAGAAGGAGUCAAUAAUGGAGUGAUGUUCCUGCUCACU [FmnA 9 U31+A55] | 277 nM | 367 nM | 414 nM | 386 nM | 331 nM |
| CGUAGCAGACGAAGGAGCGGCUACCUGAUUCAAGGUGAUGCUUGAGUGAUGUUCAGGUGUAGCCAGGUAGGUCGCGUCUGCUACG [Arg B Ex t9] | 201 nM | 144 nM | 164 nM | 180 nM | 170 nM |
| UUUAACGAGUGAUGUUCGAAAAGUAAUGGUGAGGAUAUCGUUUUUUCGAGAAGGCACCUCGAAGUGAUACGAAAGUAUCGCUUCG [FMN A 3] | 172 nM | 332 nM | 315 nM | 314 nM | 266 nM |
| UAAGAAUAGCAUGCAGUGAUGUUGCAUGUCCGAGGACCGGUACGGCCGCCACUCGAGUCCUCGAACAUGCACCGAGGAAUAACAA [#19 K4 Tryptophan A Same State] | 108 nM | 79.6 nM | 109 nM | 107 nM | 124 nM |
| AUUUUUUACAGAAGGAGCGUGUUAUAAUAAUCAUAUUGCUUAGCGAGUGAUGUUCGCUUUACACAGGUAGGUCGCUGUUUAUUUA [JR_Nu_ExcArginiB_Sub029] | 167 nM | 168 nM | 176 nM | 180 nM | 151 nM |
| GGAUAGGACUGAGGAUAUGGGCUAGGCAAGAAUAACUUGUCUAGCAAAUCCAUGAGGAGUGAUGUUCCAGAAGGCAGUCCUAUCG [FmnBX 1 U10+A76] | 732 nM | 135 nM | 170 nM | 167 nM | 113 nM |
| UGGUUUAGAAGUGAUGUUUCGAUAAGUGAUACCAGACAAAAGAAAGUCCCUUGGCAGCACAAUGAUGCCAAGGAAACGGCAUGAU [Same State Theophylline A GF 1] | 118 nM | 146 nM | 115 nM | 127 nM | 98.9 nM |
| GCUAUGGUAGGAAGGAGCGCUUACUCAUUAAUAAGAGUGAUGUUCGAUAAUGAGUAUUUAUAGCAGGUAGGUCGCCUACUAUAGC [Arginine B K4 3] | 280 nM | 221 nM | 270 nM | 247 nM | 237 nM |
| UAAUCACUCGAACUUGCAACUCGAGUGGAACGAGGACCGGUACGGCCGCCACUCGAUAACUUGCAGUGAUGUUGCAAGUAAGAAU [(T)''-(K)'-(T)'-(T1)-(T2)-(K1)-(K2)_Design8] | 333 nM | 341 nM | 411 nM | 411 nM | 219 nM |
| GCGCUUAAAUAAGGAUAUUACAGACUCAUCUACGAGUGAUGUUCGGUGCGCUGUGCACAGAGCCUGUAAGAAGGUAUAGCAUUGC [theeternabot_sameState_KL_FMN_B_41] | 1010 nM | 716 nM | 1180 nM | 811 nM | 861 nM |
| UCCUCGAAUCGACCUCGAAAGAGGAUGGAUACCAGAGAAGAAAUUCUCCCUUGGCAGCCAGUGAUGUUGGAACGAGGUAAAUAAA [#SwitchBubble 20 #K4Late] | 508 nM | 412 nM | 517 nM | 327 nM | 424 nM |
| AAGCAGUCACUCGACACCAUCGAAGAUGGGCGAGGACCGGUACGGCCGCCACUCGGAGUGAUGUUCUGAUGACUGCAAAAUAAAA [MatMod 9 - Jieux - Exclusion - Tryptophan A] | 99.9 nM | 60.1 nM | 86.3 nM | 158 nM | 75.6 nM |
| GUAGAUAGGCUACAUCUCUAGUCUAAACACUAGGAUAUCAGGAAACUGAGAAGGAGUGUCAUUGGAGUGAUGUUCCAAGAAUAAU [KL-SSFMN-A17] | 166 nM | 195 nM | 185 nM | 225 nM | 167 nM |
| AGAACUGUCUGAGAUACCAGCCAUAGGAGUGAUGUUCCUAGCUCCACAAAGUGGAGCCAUAGCCCUUGGCAGCUCAGACAGUUCA [Omei KL Theo B SS A v7] | 1040 nM | 763 nM | 1150 nM | 771 nM | 823 nM |
| ACGGGUCGACGAAGGAGCGCCGUGCAGUGAUGUUGCAGUUAGAUCCAGUGAUGUUUGGGCCGGCAGGUAGGUCGCGUCGACUCAU [Exclusion Arginine B GF 21] | 344 nM | 225 nM | 278 nM | 291 nM | 243 nM |
| AAACAUCACUGGGAGUGAUGUUCUCAGUGACGAGGACCGGUACGGCCGCCACUCGCGAGAGAUUUAGUCUAGUCUUGACUGCAUU [Excl Tryptophan A V12] | 299 nM | 303 nM | 264 nM | 372 nM | 331 nM |

| Sequence | apparent KD of K4 kissing-loop reporter (input ligand: FMN 200 uM) | apparent KD of K4 kissing-loop reporter (input ligand: arginine 13.2 mM) | apparent KD of K4 kissing-loop reporter (input ligand: none) | apparent KD of K4 kissing-loop reporter [1] | apparent KD of K4 kissing-loop reporter [2] |
| --- | --- | --- | --- | --- | --- |
| UACAUAUUAUUUAACAUAAAUUUUACAGAAGGAGCGUGAUCAUUCACAGGUAGGUCGCUGAACUAGUGAUGUUAGUUUUAUUUUU [JR_Nu_ExcArginiA_Sub025] | 62.7 nM | 96.1 nM | 71.5 nM | 97 nM | 57.3 nM |
| UGAUAGGACAGAAGGAGCGGGAGUGAUGUUCCCAAAUGGAUAGGUCGACAAAGUCGACCCUCCCAGGUAGGUCGCUGUCCUAUCU [ArgBX 7 #SwitchBubble #StaticStem] | 206 nM | 246 nM | 219 nM | 247 nM | 187 nM |
| AUUUUUUUGUCAGGAUAUUAGUGUGGGUUUGGUUUGUUAGUGAUGUUGAUAUUUGUUUUAUGUAUUUAAGAAGGGAUUUAGCGGU [zzdxemullin] | 556 nM | 330 nM | 431 nM | 443 nM | 285 nM |
| ACCAUCAAAGAUGGCCAGGACUCCGCUGAUACCAGAGUGGAAACACUCCCUUGGCAGCAGGUGAGUGAUGUUCACAGUCCAUGGA [Omel KL Theo A SS B v4] | 374 nM | 348 nM | 421 nM | 380 nM | 341 nM |
| GAUGAUCGCGCGGCCGCCACUGGUCAGUGAUGUUGACAUUAAUGCGCCGAGUAGUAACGGCGCAACAGGACCGGGCGCGAUGUAG [#11 K4 Tryptophan B Same State] | 165 nM | 160 nM | 143 nM | 185 nM | 171 nM |
| UGUCUUUUUUUGAUGUUUUUUGUAUAAUGGCAGGAUAUCGUAGAUGCGAGAAGGGCUUUUAUGCGUUAUGAGUGAUGUUUGUAGG [vjjbvmullin] | 329 nM | 260 nM | 297 nM | 332 nM | 225 nM |
| CGAUAGGGAAGUCGAUUGCUCACUGGUAAACGAGGACCGGUACGGCCGCCACUCGGGUCCAGUGAUGUUGGACUUUGUGGCGGGC [Edladian] | 117 nM | 99.5 nM | 104 nM | 99.5 nM | 109 nM |
| UGCAGUGAUGUUGCUAUUUUUCUUGAUUAACGAGGACCGGUACGGCCGCCACUCGAUUUCUCUCUAAUCCAGUAUGUUGUUUGAU [whbob_EX_Tryp_A_t4] | 97.9 nM | 139 nM | 112 nM | 142 nM | 81.1 nM |
| AGAAACUUGUAUACAGGGCAUGCCAGAGAUACCAGUCAAAUGGAAGGCCCUUGGCAGCUCAGGCGAGUGAUGUUCGCAGGCUGAC [Exclusion Theophylline A GF 20] | 132 nM | 113 nM | 142 nM | 145 nM | 105 nM |
| AUACAGCGAAGCGCUAGUGAUGUUAGCGAAGGAGCGACUCAGGAGUCAGGUAGGUCGCGCUAAACAGGUUACGAGAGUAACCAGU [Arg A Ex t1] | 142 nM | 120 nM | 140 nM | 137 nM | 113 nM |
| CAAUGAAUAUAAGAUGAUAUCAUAACAGAAGGAGCGAGUGAUAACUCAGGUAGGUCGCUGAAUUUAUCGAGUGAUGUUCGAUAAA [Same State Arginine A GF10] | 208 nM | 158 nM | 197 nM | 176 nM | 183 nM |
| UGGAGUUGACGAAAAGUCAACUCCUGAGAAGGAGCGGACGAAAGUCCAGGUAGGUCGCUCACUACCAGUGAUGUUGGUACUUAAA [#OpenEnded 4] | 152 nM | 235 nM | 198 nM | 228 nM | 192 nM |
| UGUGUUUACCUGACUCAGUGAUGUUGAGAAGGAGCGUGCGAAAGCACAGGUAGGUCGCUCAACCUAAAAUUCAGGUGAGCACUAA [#SwitchBubble 11 #K4Early] | 366 nM | 202 nM | 267 nM | 263 nM | 213 nM |
| GUACGCUCUCGAGUGAUGUUCGGUAAUCGCGAGGAUAUCGCUUUUGCGAGAAGGCGCGGAAUGAGGAAACUCGUUCUGAGUGUAC [FMN A 23] | 364 nM | 444 nM | 461 nM | 637 nM | 715 nM |
| AAAUUUAUAUUAGAUACCAGUUUAUUGGAUGUAAAUUAUGACAUGAGUGAUGUUCAUGUAAGCCCUUGGCAGCUGGUAUGGGUUU [KL-XTheo-B22] | 132 nM | 119 nM | 127 nM | 124 nM | 114 nM |
| UGAUAGGACAGAAGGAGCGGAAGUGAUGUUUCCAAAAGGAUAAGGUGUCAAAAGACACCCUUCCAGGUAGGUCGCUGUCCUAUCU [ArgBX 13 #Palindromic #SwitchBubble #StaticStem] | 148 nM | 165 nM | 134 nM | 145 nM | 136 nM |
| ACGUCCGGGUUAAUCGUGGGCGUGGUGGAUACCAGUUCUUCAAUGAACCCUUGGCAGCCACGUGAGUGAUGUUCACGUGCGAUGA [#15 K4 Theophylline A Exclusion] | 98.7 nM | 83.3 nM | 89.5 nM | 88.7 nM | 88.6 nM |
| UGUACCGAGUCAGGAUAUGGCGUCGAAAGACGAAUGCUAGUGAUGUUAGGGAUCUGCGAAAGCAGUUCAGAAGGGACUUGGUACU [FmnBS 26 G36+U67] | 275 nM | 292 nM | 404 nM | 379 nM | 338 nM |
| CUCGAGUGAUGUUCGAUUAUUUAUACAGAUACCAGUGAAUUUUAACACCCUUGGCAGCUGGUUGUAUCAUUUUUUUUUACUAAAG [JR_ExcTheophyA_Sub008] | 140 nM | 166 nM | 179 nM | 225 nM | 133 nM |
| GUAGGAUGAGGAGGAGGAUGAAUUACUGAAGGAGCGCAAAGAAAUGCAGGUAGGUCGCGGUAAAGAAGUAUAGUGAUGUUAUAUA [SSArgA.E] | 400 nM | 301 nM | 413 nM | 426 nM | 310 nM |
| UGUAUGUGAUUUGAUACCAGACCAGCUGGUGGUGUAUGAGUGAUGUUCAUGCUGGUUUGGGUCCCUUGGCAGCAAAUCGCAUACU [KL-SSTheoB29] | 10.6 nM | 6.48 nM | 8.46 nM | 7.6 nM | 8.89 nM |
